We go through 94 variants from the supplement of paper PMC10567573.

The labels stand for the following.
B1: ZBTB22 (parent)
chain: RPFDCPVCNKKFKMKHHLTEHMKT
B2: TOR1AIP2 (parent)
chain: HHVADAYTSSQKVSPIQIDGAGRT
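Note: lentivirally expressed fusions sorted by FACS into six bins by GFP to DsRed ratio, PSI derived from sequencing read proportions per bin multiplied by bin number.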

The variants in one series derive from B1. The experiment in a line: protein stability index of a GFP-peptide fusion (GPS, HEK-293T) (PSI 1-6); higher = more stable. As to conditions: c terminus: a fixed tail appended.
Turning to RPFDCPVCNKKFKMKHHNTEHMKT, the protein stability index was found to be 2.59.

For RPFDCPVCNKKFKMKHHLTEHMKY, the protein stability index was determined as 2.01. Still for that read-out and setting: the same measure for RPFDCPVCNKKFKMKHHLTEHMKW: 2.22; for RPFDCPVCNKKFKMKHHLTEHMKM: 2.5. As for RPFDCPVCNKKFKMKHHLTEHMKG, the protein stability index worked out at 2.44.

Take RPFDCPVCNKKFKMKHHLTEHMKF: the protein stability index amounted to 2.46.

With RPFDCPVCNKKFKMKHHLTEHMKD, the protein stability index was 3.55. On the same count and under the same terms, the same measure for RPFDCPVCNKKFKMKHHLTEHMKC: 3.07. RPFDCPVCNKKFKMKHHLTEHMKQ: the protein stability index was 2.53. On the same count and under the same terms, the same measure for RPFDCPVCNKKFKMKHHLTEHMKI: 1.95.

In the case of RPFDCPVCNKKFKMKHHLTEHMKS, the protein stability index worked out at 2.53.

As for RPFDCPVCNKKFKMKHHLTEHMKA, the protein stability index was 2.87. RPFDCPVCNKKFKMKHHLTEHMKL: the protein stability index is 3.19. The same measure, in the same setting: next, RPFDCPVCNKKFKMKHHLTEHMKH: 2.41. On the same count and under the same terms, the same measure for RPFDCPVCNKKFKMKHHLTEHMKR: 2.84; for RPFDCPVCNKKFKMKHHLTEHMKP: 2.45. Same read-out and setting: the same measure for RPFDCPVCNKKFKMKHHLTEHMKV: 2.34; for RPFDCPVCNKKFKMKHHLTEHMKN: 2.54.

In the case of RPFDCPVCNKKFKMKHHLTEHMKE, the protein stability index worked out at 3.21.

In the case of RPFDCPVCNKKFKMKHHLTEHMKK, the protein stability index amounted to 2.43. On to RPFDCPVCNKKFKMKHHLTEHPKT, for which the protein stability index is 2.48.

Regarding RPFDCPVCNKKFKMKHHLTEHDKT, the protein stability index is 3.1. The same measure, in the same setting: the same measure for RPFDCPVCNKKFKMKHHLTEHAKT: 2.48; for RPFDCPVCNKKFKMKHHLTEHVKT: 1.89; for RPFDCPVCNKKFKMKHHLTEHNKT: 2.62.

With RPFDCPVCNKKFKMKHHLTEHRKT, the protein stability index was found to be 2.48.

In the case of RPFDCPVCNKKFKMKHHLTEHLKT, the protein stability index is 2.95. Same read-out and setting: the same measure for RPFDCPVCNKKFKMKHHLTEHKKT: 2.92. RPFDCPVCNKKFKMKHHLTEHHKT: the protein stability index is 2.75. Same read-out and setting: next, RPFDCPVCNKKFKMKHHLTEHGKT: 2.68; RPFDCPVCNKKFKMKHHLTEHSKT: 2.29; RPFDCPVCNKKFKMKHHLTEHYKT: 2.72. As for RPFDCPVCNKKFKMKHHLTEHIKT, the protein stability index stood at 2.15. Still for that read-out and setting: the same measure for RPFDCPVCNKKFKMKHHLTEHCKT: 2.93. As to RPFDCPVCNKKFKMKHHLTEHWKT, the protein stability index was 2.43. Still for that read-out and setting: next, RPFDCPVCNKKFKMKHHLTEHFKT: 2.3; RPFDCPVCNKKFKMKHHLTEHTKT: 2.38.

For RPFDCPVCNKKFKMKHHLTEHQKT, the protein stability index was determined as 2.71. On to RPFDCPVCNKKFKMKHHLTEHEKT, for which the protein stability index is 3. On the same count and under the same terms, next, RPFDCPVCNKKFKMKHELTEHMKT: 3.42; RPFDCPVCNKKFKMKHTLTEHMKT: 2.15; RPFDCPVCNKKFKMKHKLTEHMKT: 3.1.

For RPFDCPVCNKKFKMKHMLTEHMKT, the protein stability index turned out to be 2.42. Still for that read-out and setting: next, RPFDCPVCNKKFKMKHSLTEHMKT: 2.42; RPFDCPVCNKKFKMKHILTEHMKT: 1.79; RPFDCPVCNKKFKMKHYLTEHMKT: 1.95. For RPFDCPVCNKKFKMKHALTEHMKT, the protein stability index was determined as 2.17. The same measure, in the same setting: the same measure for RPFDCPVCNKKFKMKHWLTEHMKT: 2.08; for RPFDCPVCNKKFKMKHRLTEHMKT: 2.18.

As for RPFDCPVCNKKFKMKHDLTEHMKT, the protein stability index was found to be 3.07. RPFDCPVCNKKFKMKHQLTEHMKT: the protein stability index amounted to 2.74.

RPFDCPVCNKKFKMKHLLTEHMKT: the protein stability index was 1.94.

In the case of RPFDCPVCNKKFKMKHPLTEHMKT, the protein stability index was 2.19. With RPFDCPVCNKKFKMKHFLTEHMKT, the protein stability index turned out to be 1.73.

In the case of RPFDCPVCNKKFKMKHVLTEHMKT, the protein stability index came to 2.24. Same read-out and setting: the same measure for RPFDCPVCNKKFKMKHNLTEHMKT: 2.62; for RPFDCPVCNKKFKMKHCLTEHMKT: 2.25; for RPFDCPVCNKKFKMKHGLTEHMKT: 1.74. Still for that read-out and setting: next, RPFDCPVCNKKFKMKHHLTEYMKT: 2.2; RPFDCPVCNKKFKMKHHLTERMKT: 2.25. Regarding RPFDCPVCNKKFKMKHHLTEVMKT, the protein stability index stood at 2.44. For the variant RPFDCPVCNKKFKMKHHLTETMKT, the protein stability index worked out at 2.24.

Regarding RPFDCPVCNKKFKMKHHLTELMKT, the protein stability index is 1.45. Take RPFDCPVCNKKFKMKHHLTESMKT: the protein stability index was determined as 2.52.

Regarding RPFDCPVCNKKFKMKHHLTEMMKT, the protein stability index was found to be 1.54. Take RPFDCPVCNKKFKMKHHLTECMKT: the protein stability index stood at 3.33. The same measure, in the same setting: the same measure for RPFDCPVCNKKFKMKHHLTEFMKT: 2.06. Still for that read-out and setting: next, RPFDCPVCNKKFKMKHHLTEKMKT: 2.25. As for RPFDCPVCNKKFKMKHHLTEIMKT, the protein stability index stood at 1.84. Same read-out and setting: the same measure for RPFDCPVCNKKFKMKHHLTEAMKT: 2.74; for RPFDCPVCNKKFKMKHHLTEDMKT: 2.37; for RPFDCPVCNKKFKMKHHLTEEMKT: 2.88. On the same count and under the same terms, the same measure for RPFDCPVCNKKFKMKHHLTENMKT: 2.38. As for RPFDCPVCNKKFKMKHHLTEQMKT, the protein stability index is 2.34. Same read-out and setting: next, RPFDCPVCNKKFKMKHHLTEPMKT: 2.37. Turning to RPFDCPVCNKKFKMKHHLTEWMKT, the protein stability index stood at 2.13. Same read-out and setting: the same measure for RPFDCPVCNKKFKMKHHLTEGMKT: 2.38.

The next series covers variants of B2. Described as above. As to conditions: c terminus: a fixed tail appended.
Take HHVADAYTSSQKVSPIQIDWAGRT: the protein stability index was found to be 2.33. As for HHVFDAYTSSQKVSPIQIDGAGRT, the protein stability index was 3.42. Still for that read-out and setting: next, HHVADAYTSSQKVSPAQIDGAGRT: 3.72; HHVADAYTSSQKVSPWQIDGAGRT: 2.59.

As for HHVADAYCSSQKVSPIQIDGAGRT, the protein stability index came to 2.78.

For HHLADAYTSSQKVSPIQIDGAGRT, the protein stability index was determined as 3.77. Regarding HHVADAYTSSQKVSPIQIDGEGRT, the protein stability index was found to be 3.32. For HHVADAYTSSQKVSPIQIDGAGMT, the protein stability index was 3.26. The same measure, in the same setting: the same measure for HHVADAVTSSQKVSPIQIDGAGRT: 4.62. Still for that read-out and setting: next, HHVADFYTSSQKVSPIQIDGAGRT: 2.69; HHVADAYTSSQKGSPIQIDGAGRT: 3.7; HHVADAYTSSQKNSPIQIDGAGRT: 4.32. Same read-out and setting: next, HHVADAYTSSQKVSPILIDGAGRT: 3.57; DHVADAYTSSQKVSPIQIDGAGRT: 4.91. THVADAYTSSQKVSPIQIDGAGRT: the protein stability index worked out at 3.94. For HHVADAYTSSQKVSPIQITGAGRT, the protein stability index was found to be 3.07. As to HHVADAYTSSQKVSPIQIRGAGRT, the protein stability index came out at 2.93.
